Test results from patent US20260167699A1 (Chugai, published 2026).
Residue numbers refer to the chain shown, from its start.

T1: FcγRIIb (human, UniProt P31994 43-217)
T1 construct: extracellular domain; also called 2b
T1 sequence: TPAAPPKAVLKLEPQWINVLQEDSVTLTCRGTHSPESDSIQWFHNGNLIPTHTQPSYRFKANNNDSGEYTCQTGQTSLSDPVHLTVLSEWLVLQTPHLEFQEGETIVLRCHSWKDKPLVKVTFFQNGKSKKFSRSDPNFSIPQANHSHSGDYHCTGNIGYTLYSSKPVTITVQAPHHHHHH

T2: FcγRIIa(R) (human, UniProt P12318 34-217)
T2 construct: extracellular domain; allotype R131; also called 2aR
T2 sequence: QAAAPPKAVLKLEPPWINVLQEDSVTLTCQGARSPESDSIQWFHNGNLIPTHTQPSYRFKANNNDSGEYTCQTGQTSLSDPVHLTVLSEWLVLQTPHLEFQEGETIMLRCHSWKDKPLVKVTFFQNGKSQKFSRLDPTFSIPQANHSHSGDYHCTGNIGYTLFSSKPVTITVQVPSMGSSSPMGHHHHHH

T3: FcγRIIa(H) (human, UniProt P12318 34-217)
T3 construct: extracellular domain; allotype H131; also called 2aH
T3 sequence: T2 sequence with R134H

T4: FcγRIIa(H) (human, UniProt P12318 34-217)
T4 construct: extracellular domain; also called 2aH
T4 sequence: T2 sequence with R134H

T5: FcγRIIa(R) (human, UniProt P12318 34-217)
T5 construct: extracellular domain; also called 2aR
T5 sequence: T2 sequence

T6: FcγRIIb (human, UniProt P31994 43-217)
T6 construct: extracellular domain; also called 2b
T6 sequence: T1 sequence

B1: GpH7-A5/GpH7-B3 variant S337_08L/GpL16-k0 (antibody, human IgG1, kappa)
heavy 1: not shown
heavy 2: not shown
light: DIVMTQSPLSLPVTPGEPASISCQASESLVHSNRNTYLHWYLQKPGQSPQLLIYKVSNRFSGVPDRFSGSGSGTDFTLKISRVEAEDVGVYYCSQNTHVPPTFGQGTKVEIERTVAAPSVFIFPPSDEQLKSGTASVVCLLNNFYPREAKVQWKVDNALQSGNSQESVTEQDSKDSTYSLSSTLTLSKADYEKHKVYACEVTHQGLSSPVTKSFNRGEC
notes: Heterodimerized anti-glypican 3 IgG1 antibody with the mutation in only one H chain (GpH7-B3 side); also called He Ab
B2: GpH7-A5/GpH7-B3 variant S337_16H/GpL16-k0 (antibody, human IgG1, kappa)
heavy 1: not shown
heavy 2: not shown
light: B1 light
notes: as for B1
B3: GpH7-A5/GpH7-B3 variant S337_15Y/GpL16-k0 (antibody, human IgG1, kappa)
heavy 1: not shown
heavy 2: not shown
light: B1 light
notes: as for B1
B4: GpH7-A5/GpH7-B3 variant S337_19Q/GpL16-k0 (antibody, human IgG1, kappa)
heavy 1: not shown
heavy 2: not shown
light: B1 light
notes: as for B1
B5: GpH7-A5/GpH7-B3 variant S337_14T/GpL16-k0 (antibody, human IgG1, kappa)
heavy 1: not shown
heavy 2: not shown
light: B1 light
notes: as for B1
B6: GpH7-A5/GpH7-B3 variant S337_07I/GpL16-k0 (antibody, human IgG1, kappa)
heavy 1: not shown
heavy 2: not shown
light: B1 light
notes: as for B1
B7: GpH7-A5/GpH7-B3 variant S337_20W/GpL16-k0 (antibody, human IgG1, kappa)
heavy 1: not shown
heavy 2: not shown
light: B1 light
notes: as for B1
B8: GpH7-A5/GpH7-B3 variant S337_11K/GpL16-k0 (antibody, human IgG1, kappa)
heavy 1: not shown
heavy 2: not shown
light: B1 light
notes: as for B1
B9: GpH7-A5/GpH7-B3 variant S337_20W/GpL16-k0 (antibody, human IgG1, kappa)
heavy 1: not shown
heavy 2: not shown
light: B1 light
notes: heterodimerized anti-glypican 3 IgG1; mutation in one H chain only; also called He Ab
B10: GpH7-A5/GpH7-B3 variant S337_08L/GpL16-k0 (antibody, human IgG1, kappa)
heavy 1: not shown
heavy 2: not shown
light: B1 light
notes: as for B9
B11: GpH7-A5/GpH7-B3 variant S337_16H/GpL16-k0 (antibody, human IgG1, kappa)
heavy 1: not shown
heavy 2: not shown
light: B1 light
notes: as for B9
B12: GpH7-A5/GpH7-B3 variant S337_14T/GpL16-k0 (antibody, human IgG1, kappa)
heavy 1: not shown
heavy 2: not shown
light: B1 light
notes: as for B9
B13: GpH7-A5/GpH7-B3 variant S337_19Q/GpL16-k0 (antibody, human IgG1, kappa)
heavy 1: not shown
heavy 2: not shown
light: B1 light
notes: as for B9
B14: GpH7-A5/GpH7-B3 variant S337_11K/GpL16-k0 (antibody, human IgG1, kappa)
heavy 1: not shown
heavy 2: not shown
light: B1 light
notes: as for B9
B15: GpH7-A5/GpH7-B3 variant S337_07I/GpL16-k0 (antibody, human IgG1, kappa)
heavy 1: not shown
heavy 2: not shown
light: B1 light
notes: as for B9
B16: GpH7-A5/GpH7-B3 variant S337_15Y/GpL16-k0 (antibody, human IgG1, kappa)
heavy 1: not shown
heavy 2: not shown
light: B1 light
notes: as for B9
B17: GpH7-A5/GpH7-B3 variant S337_20W/GpL16-k0 (antibody, human IgG1, kappa)
heavy 1: not shown
heavy 2: not shown
light: B1 light
notes: heterodimerized anti-glypican 3 IgG1, only the GpH7-B3 chain mutated; also called He Ab
B18: GpH7-A5/GpH7-B3 variant S337_08L/GpL16-k0 (antibody, human IgG1, kappa)
heavy 1: not shown
heavy 2: not shown
light: B1 light
notes: as for B17
B19: GpH7-A5/GpH7-B3 variant S337_16H/GpL16-k0 (antibody, human IgG1, kappa)
heavy 1: not shown
heavy 2: not shown
light: B1 light
notes: as for B17
B20: GpH7-A5/GpH7-B3 variant S337_14T/GpL16-k0 (antibody, human IgG1, kappa)
heavy 1: not shown
heavy 2: not shown
light: B1 light
notes: as for B17
B21: GpH7-A5/GpH7-B3 variant S337_19Q/GpL16-k0 (antibody, human IgG1, kappa)
heavy 1: not shown
heavy 2: not shown
light: B1 light
notes: as for B17
B22: GpH7-A5/GpH7-B3 variant S337_11K/GpL16-k0 (antibody, human IgG1, kappa)
heavy 1: not shown
heavy 2: not shown
light: B1 light
notes: as for B17
B23: GpH7-A5/GpH7-B3 variant S337_15Y/GpL16-k0 (antibody, human IgG1, kappa)
heavy 1: not shown
heavy 2: not shown
light: B1 light
notes: as for B17
B24: GpH7-A5/GpH7-B3 variant S337_07I/GpL16-k0 (antibody, human IgG1, kappa)
heavy 1: not shown
heavy 2: not shown
light: B1 light
notes: as for B17
B25: GpH7-G1d/GpL16-k0 (antibody, human IgG1, kappa)
heavy: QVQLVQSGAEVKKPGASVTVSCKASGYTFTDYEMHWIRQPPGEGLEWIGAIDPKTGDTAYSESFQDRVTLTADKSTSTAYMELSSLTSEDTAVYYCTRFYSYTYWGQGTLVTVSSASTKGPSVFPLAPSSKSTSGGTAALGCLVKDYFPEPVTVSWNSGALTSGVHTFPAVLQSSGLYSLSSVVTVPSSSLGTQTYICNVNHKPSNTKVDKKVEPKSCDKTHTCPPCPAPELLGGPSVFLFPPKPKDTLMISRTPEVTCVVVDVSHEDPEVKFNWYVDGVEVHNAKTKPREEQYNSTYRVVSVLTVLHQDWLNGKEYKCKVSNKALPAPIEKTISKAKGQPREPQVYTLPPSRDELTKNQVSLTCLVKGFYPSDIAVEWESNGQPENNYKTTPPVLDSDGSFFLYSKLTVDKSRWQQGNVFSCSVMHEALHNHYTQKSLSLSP
light: B1 light
notes: anti-glypican 3 IgG1, C-terminal Gly and Lys of the H chain deleted; also called naturally occurring IgG1

Target: T7, FcγRIa (human, UniProt P12314 16-292)
T7 construct: extracellular domain; also called 1a
Assay: SPR (Biacore), antibody captured on chip, FcγR as analyte; relative to GpH7-A5/GpH7-B3/GpL16-k0 = 100
T7 sequence (P12314 other isoform, or with tags, fused parts or gaps): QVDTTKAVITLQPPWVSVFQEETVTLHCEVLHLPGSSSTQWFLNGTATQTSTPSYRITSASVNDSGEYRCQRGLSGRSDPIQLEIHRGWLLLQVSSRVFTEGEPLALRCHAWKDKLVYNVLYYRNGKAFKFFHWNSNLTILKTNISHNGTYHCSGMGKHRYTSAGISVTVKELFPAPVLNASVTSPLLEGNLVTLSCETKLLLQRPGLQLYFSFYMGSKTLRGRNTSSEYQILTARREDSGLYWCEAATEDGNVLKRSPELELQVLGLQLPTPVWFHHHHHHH

| He/Con 1a (binding activity relative to GpH7-A5/GpH7-B3/GpL16-k0 x 100) | Binder |
| --- | --- |
| 102 % of control | B1 |
| 101 % of control | B2 |
| 101 % of control | B3 |
| 101 % of control | B4 |
| 102 % of control | B5 |
| 102 % of control | B6 |
| 102 % of control | B7 |
| 101 % of control | B8 |

Target: T1, FcγRIIb
Assay: as above

| He/Con 2b (binding activity relative to GpH7-A5/GpH7-B3/GpL16-k0 x 100) | Binder |
| --- | --- |
| 109 % of control | B1 |
| 114 % of control | B2 |
| 109 % of control | B3 |
| 109 % of control | B4 |
| 114 % of control | B5 |
| 113 % of control | B6 |
| 119 % of control | B7 |
| 103 % of control | B8 |

Target: T2, FcγRIIa(R)
Assay: as above

| He/Con 2aR (binding activity relative to GpH7-A5/GpH7-B3/GpL16-k0 x 100) | Binder |
| --- | --- |
| 109 % of control | B1 |
| 111 % of control | B2 |
| 107 % of control | B3 |
| 108 % of control | B4 |
| 112 % of control | B5 |
| 111 % of control | B6 |
| 112 % of control | B7 |
| 105 % of control | B8 |

Target: T8, FcγRIIIa (human, UniProt P08637 17-208)
T8 construct: extracellular domain; also called 3a
Assay: as above

T8 sequence (P08637 other isoform, or with tags, fused parts or gaps): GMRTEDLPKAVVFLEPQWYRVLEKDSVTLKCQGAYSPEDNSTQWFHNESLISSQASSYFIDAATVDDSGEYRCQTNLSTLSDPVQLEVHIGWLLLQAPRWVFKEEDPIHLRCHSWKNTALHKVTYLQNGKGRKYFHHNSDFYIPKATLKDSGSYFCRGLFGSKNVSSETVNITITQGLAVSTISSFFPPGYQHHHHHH

| He/Con 3a (binding activity relative to GpH7-A5/GpH7-B3/GpL16-k0 x 100) | Binder |
| --- | --- |
| 90.2 % of control | B1 |
| 100 % of control | B2 |
| 94.9 % of control | B3 |
| 91.2 % of control | B4 |
| 94 % of control | B5 |
| 88.3 % of control | B6 |
| 93.8 % of control | B7 |
| 80.1 % of control | B8 |

Target: T3, FcγRIIa(H)
Assay: as above

| He/Con 2aH (binding activity relative to GpH7-A5/GpH7-B3/GpL16-k0 x 100) | Binder |
| --- | --- |
| 106 % of control | B1 |
| 108 % of control | B2 |
| 106 % of control | B3 |
| 104 % of control | B4 |
| 110 % of control | B5 |
| 107 % of control | B6 |
| 108 % of control | B7 |
| 102 % of control | B8 |

Target: T9, FcγRIIIa extracellular domain with C-terminal His tag (allotype not given) (human, UniProt P08637 17-208)
T9 construct: extracellular domain; also called 3a
Assay: SPR (Biacore), captured antibody, FcγRIIIa analyte; binding relative to GpH7-A5/GpH7-B3/GpL16-k0 = 100

T9 sequence (P08637 other isoform, or with tags, fused parts or gaps): as above

| He/Con 3a | Binder |
| --- | --- |
| 93.8% | B9 |
| 90.2% | B10 |
| 100% | B11 |
| 94% | B12 |
| 91.2% | B13 |
| 80.1% | B14 |
| 88.3% | B15 |
| 94.9% | B16 |

Target: T4, FcγRIIa(H)
Assay: SPR (Biacore); He Ab binding / HeCon Ab (GpH7-A5/GpH7-B3/GpL16-k0) binding x100;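 further: antibody captured on the sensor chip, soluble FcγR flowed over it in HBS-EP+ running buffer, 25 °C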
Method: (§1) The antibody of interest was analyzed for its interaction with FcγR using a BiaCore™ T100, BiaCore™ A100, or BiaCore™ 4000 surface plasmon resonance system (GE Healthcare Japan Corp.). The running buffer used was HBS-EP+ (GE Healthcare Japan Corp.). The assay temperature was set to 25° C. The sensor chips used were: a chip prepared by immobilizing antigenic peptides onto Series S Sensor Chip CM5 (GE Healthcare Japan Corp.) by the amine coupling method; a chip prepared by immobilizing antigenic peptides biotinylated in advance onto Series S Sensor Chip SA (certified) (GE Healthcare Japan Corp.) through their interaction; a chip prepared by immobilizing protein L (ACTIGEN, BioVision, Inc.) onto Series S Sensor Chip CM5 (GE Healthcare Japan Corp.); and a chip prepared by immobilizing protein A/G (Thermo Fisher Scientific K.K.) onto Series S Sensor Chip CM5 (GE Healthcare Japan Corp.). The antibody of interest was captured onto any of these chips and allowed to interact with FcγR diluted with a running buffer. The antibody captured on the chip was washed off through the reaction of 10 mM glycine-HCl (pH 1.5) to regenerate the chip, which was repetitively used.

| He/Con 2aH | Binder |
| --- | --- |
| 108% | B17 |
| 106% | B18 |
| 108% | B19 |
| 110% | B20 |
| 104% | B21 |
| 102% | B22 |
| 106% | B23 |
| 107% | B24 |

Target: T5, FcγRIIa(R)
Assay: as above
Method: as §1

| He/Con 2aR | Binder |
| --- | --- |
| 112% | B17 |
| 109% | B18 |
| 111% | B19 |
| 112% | B20 |
| 108% | B21 |
| 105% | B22 |
| 107% | B23 |
| 111% | B24 |

Target: T6, FcγRIIb
Assay: as above
Method: as §1

| He/Con 2b | Binder |
| --- | --- |
| 119% | B17 |
| 109% | B18 |
| 114% | B19 |
| 114% | B20 |
| 109% | B21 |
| 103% | B22 |
| 109% | B23 |
| 113% | B24 |

Target: T10, FcγRIa (human, UniProt P12314 16-292)
T10 construct: extracellular domain; also called 1a
Assay: as above
T10 sequence (P12314 other isoform, or with tags, fused parts or gaps): as the sequence (P12314 other isoform, or with tags, fused parts or gaps) above
Method: as §1

| He/Con 1a | Binder |
| --- | --- |
| 102% | B17 |
| 102% | B18 |
| 101% | B19 |
| 102% | B20 |
| 101% | B21 |
| 101% | B22 |
| 101% | B23 |
| 102% | B24 |

Target: T9, FcγRIIIa extracellular domain with …
Assay: SPR (Biacore), captured antibody, FcγRIIIa analyte, 1:1 Langmuir fit
Method: as §1

| Kd | Binder |
| --- | --- |
| 1200 nM | B25 |

Target: T9, FcγRIIIa extracellular domain with …
Assay: SPR; KD of GpH7-G1d/GpL16-k0 for FcγRIIIa divided by KD of this antibody
Method: as §1

| KD ratio1 | Binder |
| --- | --- |
| 1 fold | B25 |
